Test results: the DeepSol protein solubility set

Test: soluble on expression in E. coli; label from the status in PepcDB or PDB records

| Sequence | soluble on expression in E. coli |
| --- | --- |
| MTLAEAADAINFGLAGRVVLVTGGVRGVGAGISSVFAEQGATVITCARRAVDGQPYEFHRCDIRDEDSVKRLVGEIGERHGRLDMLVNNAGGSPYALAAEATHNFHRKIVELNVLAPLLVSQHANVLMQAQPNGGSIVNICSVSGRRPTPGTAAYGAAKAGLENLTTTLAVEWAPKVRVNAVVVGMVETERSELFYGDAESIARVAATVPLGRLARPADIGWAAAFLASDAASYISGATLEVHGGGEPPPYLGASSANK | soluble |
| MGSDKIHHHHHHMPTLIERIHQVELGNLTQLDQLCHQLGLPYFLMGGSLLGAIRHQGFIPWDDDVDVGLLRADYDQLLAAAPTHLADSPYFLQTPTSDENYGLSYAKLLDRRTYIEEKRNVNNARKGIFIDIFPLDRIPQDTSAQQKQSTKFQLLNTRILLQLRYHLVDNPLRKLQGPLSSEQLTSVNALKAERQAVMTQYQAEITLPQVKNLSSQYAYAKEVFTVAELSDLTTVPFEHLQVQVPRNYATILTRMYGDYLALPPENQRTKKHLERVIMDNQVFTD | not soluble |
| MSLSVIDLLKQRVQSAGKKPVIIFPEG | not soluble |
| MGSDKIHHHHHHMSTDFKKRNVFFSPPDMTETETRLVVEAIMSGWITTGPKTKEFEKKISAYVHTDKTVCLNSATAAMELALRLIGVGPEDEVIVPAYTYTASASVTQHVGCHLVMVDSNEENQQMDLQKLAEAITERTKVIVPVDLGGVVCEYDKILEILEQKKGLFRPTNELQKKIGRVIISSDCAHAFGSEWKGKMAGEIGDFSSFSFHAVKNLTTAEGGALTWHLPFGNEPIIMDIDTTIPVFEGETWNEFLYRKCQLFSLHGQNKDALAKTKLGSWEYDVIGPWYKCNMTDIMASLGLAQMERYDTMLQKRQKYVERFNEAFKELNVAVLDHKGAEHCSSHHLYIIRLLGKTREQVNDVITKMAERGIATNVHYKPLPMMTAYKTLGFDIKNFPNAYKMFENTMTLPLNTKMTEEDVEYVIENFVDIVKSL | not soluble |
| MVSQIGLLLPLSGDGQILGTTIQSGFNDAKGNSTIPVQVFDTSMNSVQDIIAQAKQAGIKTLVGPLLKQNLDVILADPAQIQGMDVLALNATPNSRAIPQLCYYGLSPEDEAESAANKMWNDGVRNPLVAMPQNDLGQRVGNAFNVRWQQLAGTDANIRYYNLPADVTYFVQENNSNTTALYAVASPTELAEMKGYLTNIVPNLAIYASSRASASATNTNTDFIAQMNGVQFSDIPFFKDTNSPQYQKLAKSTGGEYQLMRLYAMGADAWLLINQFNELRQVPGYRLSGLTGILSADTNCNVERDMTWYQYQDGAIVPVVDHHHHHH | soluble |
| MKKSLDEHAERFSDHADAYDEDQDSAAYRACVNFVVDHAAPESDDVVLDLGTGTGAIAFALASDAAEIIGRDISDGMLEKAREKADGRGVENVSFGDGRFRAPNVDRPVDIVTSNFAMHHLGDDEKREAIDTIADLGPRRIVLGDVMLFGDDDPDAPFYSPEVDDPATVGVLADAFTDAGYALTAVEMVTEQAGVLVAERVKSDLEHHHHHH | soluble |
| VFGYVTEDGDTALHLAVIHQHEPFLDFLLGFSAGHEYLDLQNDLGQTALHLAAILGEASTVEKLYAAGAGVLVAERGGHTALHLACRVRAHTCACVLLQPRPSHPRDASDTYLTQSQDCTPDTSHAPAAVDSQPNPENEEEPRDEDWRLQLEAENYDGHTPLHVAVIHKDAEMVRLLRDAGADLNKPEPTCGRTPLHLAVEAQAASVLELLLKAGADPTARMYGGRTPLGSALLRPNPILARLLRAHGAPEPEDGGDKLSPCEEEGEDEDSDNRDEGDEYDD | soluble |
| MFIYCIPLISQSMIPMALDKTINVMKVTGMFAATYFTGDNRTPFFAFIICLKSFKLENMDQPPKNKSNIFPAVEDSLLLEHHHHHH | not soluble |
| SDNLSSEEIQQRAHQITDESLESTRRILGLAIESQDAGIKTITMLDEQKEQLNRIEEGLDQINKDMRETEKTLTELNKCCGLCVCPCNRTKNFESGKAYKTTWGDGGENSPCNVVSKQPGPVTNGQLQQPTTGAASGGYIKRITNDAREDEMEENLTQVGSILGNLKDMALNIGNEIDAQNPQIKRITDKADTNRDRIDIANARAKKLIDS | soluble |
| MSILDLTKISKDSTKLQNFVKFERVKTGGLDVYMSEYSWNTKEAGTMSICDVSENTSLDYRSNHQQLLKSWISSTEKIAQLFPTTLRTFQVTPPMIAAILDLETAIPKTCDVLIIQNYVPAEMDRYQESVDQFMEKCHIREGVVLHHEVYTNSPKMFQLDYLSVTHSDWMVPSDLEEMENKIVYLDKSDFYDSDMNQFLRELKSGSSHSRLQILSIQGNSWQNYWDPSDVLEGLNAELWNQTERNQHYFLNAEHRKNFKKIADHFYPDQEDGFGAELEHGVDLSEAFDFLKNDGTRVSVRFDELILQVFVWPNEKPSRKRKAQEQGSIAKRFC | not soluble |
| DFVGGTKMNMPAAQLETSEVADTFKDATGIEPELVQIVGSGDTRILEINSERLSEDQISQARVALFEKYQPVGSQGQPTPDAIGDSTVSESWGSTITQR | not soluble |
| MKMIIAIVQDQDSQELADQLVKNNFRATKLATTGGFLRAGNTTFLCGVNDDRVDEILSVINQTCGNREQLVSPITPMGGSADSYIPYPVEVEVGGATVFVMPVDAFHQF | not soluble |
| MAHHHHHHMKRPWGESVGTQSNHTRTDGVQEPSASAELAASANDDTQVRSDGRNVRVRSSGSPRTIDTGNGGGSTVVSPQRQLSDQRLPQASSRHELLEGTSEFLLRTEGNIPCSFGNVPKDSIGYESQCCWNLYNNTGTTHYEPPWRTCLAVEKNRENPYYLPWLDSMKIPPLDELLSKVDERKSKAATSGDVDSGTNDSNVKDGSTKHAD | soluble |
| MGSDKIHHHHHHSDEEDGGSGGNLIYGGVSVSQEVLAHKPMLEKYAREYGIEEYLNVLLAIIQVESGGTLEDVMQSSESLGLPPNSLSTEESIKQGCKYFSELLAAAETKGCDLNSVIQSYNYGGGFLDYVAGHGKKYTFELAESFARDKSGGKKVTYTNPVAVEKNGGWRYSYGNMFYVLLVSQYLTVAQFDDETVQAIMEEALKYEGWTYVYGGDSPSTSFDCSGLVQWCYGKAGIALPRTAQEQYNVTQHIPLSEAKAGDLVFFHSTYNAGTYITHVGLYVGNNRMYHAGNPIGYADLTGSYWQQHLAGAGRIKQ | not soluble |
| MGSDKIHHHHHHMKEKERLIIEMAMKLFATKGVNATSVQEIVTACGISKGAFYLYFKSKEELLLATLRYYYDKIQNKMMDIEKESLLPREKFAKQLHCQFNDIQKHKEFIIMHARENAIPFNKEVEEFMMRMKLESHAFYRNSLLSIYGDKVMPYLLDLVIMVEGICRGYLELIILQAPEIDLSYVSAFILKRVDHLVDGLVKSSEEPVLHEERLGEFLCKSELIKEQVKEHFLKEIIVFKRTLADQLEDEELLVTLDVLEAEMRMQNPRIPVIQGMLFNLEAYPTLKEFRLRLMGYYNIKR | not soluble |
| MGDNQVTGGDIHKLWMTAHMDISAVEDAYIKLTEQLDGDVAEGDEGKYGKAFDSWNIYREIVQLALFRTAVSARATRLALDLAVSEFTFVDGDAANGITDAGKEFLEAVGDENQTPPEYVVEPEGDPVAPLGNDE | not soluble |
| MSLAITTSPPTVSDTKRIFYANYKKLLLPLYNTPIQNMLVKQHIHRYNKNYTYSDVSALGIVTTLDSVLNTFPDDEKTSIKNAFIISLNEDPEMYYSNIESLKPYAKSSHLGPNKHGNTLQKSLYDIAINDKYVYSSFAAVGIFKLLQMNGNYTGNSVKHLSESIGFKGELVHKDIATFFSLLKYIESSQKLADDIREESLKREGHHHHHH | soluble |
| SCIIFFKFDPRPVSKNAYRLILAANRDEFYSRPSKLADFWGNNNEILSGLDMEEGKEGGTWLGISTRGKLAALTNYLQPQLDWQARGRGELVTHFLTTDVDSLSYLKKVSMEGHLYNGFNLIAANLSTAKGDVICYYGNRGEPDPIVLTPGTYGLSNALLETPWRKLCFGKQLFLEAVERSQALPKDVLIASLLDVLNNKEAQLPDPAIEDQGGEYVQPMLSKYAAVCVRCPGYGTRTNTIILVDADGHVTFTERSMMDKDLSHWETRTYEFTLQS | not soluble |
| KQWVWSAESPIETNILKLLPKNQQNPVAEQAFESVSASMSDKVIFVITAPDKNALFAAAAEFDKGLRQSNHFRDVVGKISPQEQQAWASYYFKHRFQLLTPEQRERLSQNPEQQVQHVIQSLYNPFSGVTGQELQSDPFLLFRDYLSQVTQQSSSFRLDNGYLSVEKDGAQYLLITAELKESPYSLTGQLAVPDIQALEQSVAQKYGAEVAHTGVLFYADFGTQSAKSE | soluble |
| MGSDKIHHHHHHMTKPLINLVHANGFPAGSYKTFLQEFDNDFRTIAHNQFGHNVLYPIHNNWQHLVTELVEFIKKQDEKVICVGHSFGGVISFIAACQHPELFRGLVMLDPPVVTGAFSHLLSFIKRTPYIDKLSPAGKAKTRQNQWPENTNLVDYFSQKTLFKNFDSRCLQDYASSSVVLRNKRLELSFSPAVEADIFRHLPTNLVKYKNKLTVPAKLIYGEKTQIFPIKHFVRFAKLNDIELMTLPNGGHMFPLEQPENTANMVKQIIKDW | not soluble |
| MSLEYNLTTTEIELVNVTASWDEGIGELFEKIKQENKANGQPNGDAGLFFTNLYVTPVLKNISLYLEKGQMLAVAGSTGSGKSSLLMMILGELVPSEGKIRHSGRISFSPQTSWIMPGTIRDNILFGLTYDEFRYTSVIKACQLEEDLALLPEKDKTPLMEGGVTLSGGQRARIGLARAVYKDADLYLLDSPFTHLDIVTEKEIFERCLCKLLSSKTRIVVTSKLEHLKRADKILLLHNGVCYFYGSFSELQAKRPDFSSLLLGLEAYDNIKAERRSSILTETLRRVSIDESTVFRGEGHHHHHH | soluble |
| GTVKVYLPNKQRTVVTVRDGMSVYDSLDKALKVRGLNQDCCVVYRLIKGRKTVTAWDTAIAPLDGEELIVEVL | soluble |
| MGSDKIHHHHHHMILKYAPLNLDQKFSLVYFRMTHDNCWSKITEKHDVMIHTLKLLPNKDRDIIYGLFELKVKGKRTLRDFLRDLNRSGTIRKLGGLSISELKSNIYIIDLYETYSGMIQGKLNDYNSIFDFDLVKYGVEEKYAVIPSENVNELKNELQSMGQLFDFRAKYFPNFYEVLTPYFNFTPIEMQIIIEAYNLGYYDIPRRAGIREIAEYFGLSKSTVQEYIRNAESKTMSNMKLFRMLNELKRL | not soluble |
| MGSDKIHHHHHHMVDIHSHIIPGIDDGSNSLETTLNMMSIAKEAGVTKMVATSHYYRGKFENSISVIEKKANELNYTLKEKGVDIDVIPGQEVFIDNYTLKDYKEGIIGTINNTDYMLVEFDMMSLGENAIDTLYELQIKGIKPIIAHPERYTYIQKDIYKINELMDENIYFQVNAGSIEGLFGKTVQKTALKLVEEGVISFIASDAHSAGKRCPGYEKALHDLTKIDKTLAEKFIKNSNLLLENEKIENKVRKLKKKKTFFSFLK | not soluble |
| MDIKAMGYVVIPRLPFKEFRDEKIYDHLFKRAEYRPNQELELGQTIIKVVELAKDFNWSAAQIKYSLDRMEKQGYIKLHRLPQKRGLIVTILHYADYIQLGNYMKNKALEPAQIEHQEVDDKMKNAFELYENKVARSVGPMEAQRIGYMVDDYGEEKVMEAIKTAFQLKGKAASLSYVQAILSNPFTQKRKEKQYGYKQSSQYRHRISNDHAGTSGKVSPLFGNKTGRIRRKG | not soluble |
| MGSDKIHHHHHHMILRKKKSLNAGPINGTGEGVAHSKRWYVALVRMHHEKKVSEHLDKMGIENFVPVQQELHQWSDRRKLVTSVLLPMMVFVHADPKERMEVLSFSTVSRYMVMRGESSPAVIPDEQMARFRFMLDYSEESISMNSSPLARGEKVRVIKGPLTGLVGELVNVDGRSKIAVRLNMLGCACVDMPVGYVEPIMAAV | not soluble |
